Measurements taken from patent US20070196275A1, “Diagnostic Imaging Compositions, Their Methods Of Synthesis And Use” (priority 2001, published 2007).

Key:
MDA-MB-468 tumors [1] = test: Autoradiography and TUNEL assay; format: in vivo, mice; details: 4 days after treatment, intratumoral distribution of ^111In-DTPA-PEG-AV
Text: Two tumors removed from each group of mice at the end of the gamma imaging session were rapidly frozen, processed, and 8-μm sections were made. The sliced sections were fixed in cold acetone, dried, and exposed to a multipurpose storage phosphor screen for 10 days. A Cyclone™ Storage Phosphor System (Packard Instrument Company, Inc., Meriden, Conn.) was used to obtain autoradiographic images. The radioactivity at selected field of view is expressed as digital light unit per millimeter square (DLU/mm^2).
DNA fragmentation was analyzed by terminal deoxynucleotidyl transferase (TdT)-uridine nick end labeling (TUNEL) using a commercial kit according to the manufacturer provided protocol (Promega, Madison, Wis.). Frozen tissue sections (8 μm) were fixed with 4% paraformaldehyde (methanol-free) for 10 minutes at room temperature. The sections were washed with PBS two times (5 minutes each) and incubated with equilibration buffer (Promega) for 10 minutes at room temperature. […] Images were recorded using an Olympus fluorescence microscope (Olympus, Melville, N.Y.) with 520 nm filter and 20× object lens. Apoptotic cells per slide view were quantified by AAB colony counting software (Advanced American Biotechnology, Fullerton, Calif.) and expressed as number per field of view (0.016 mm^2).

[2] = design: species or system Nude mice; details: mouse, in vivo; for clearance / t1/2, α / t1/2, β / terminal half-life (rounded figures): iv
Experimental: At predetermined intervals, blood samples (30-60 μl) were taken from the medial saphenous vein by puncture, and the radioactivity of each sample was measured with a Cobra Autogamma counter (Packard, Downers Grove, Ill.). The pharmacokinetic parameters for each radiotracer were calculated from mean blood concentration values observed over the study period using WinNonlin™ 2.1 software (Scientific Consulting, Inc., Lexington, Ky.). The mice were killed at the end of the study, and the liver, muscle, kidneys, and spleen were removed, weighed, and measured for radioactivity. The data are expressed as percentage of injected dose per gram of tissue. In FIG. 15A, the y-axis represents % Injected dose/ml blood; the x-axis represents time in hours. Squares represent Annexin V. Diamonds represent PEG-Annexin V. In FIG. 15B, the y-axis represents % Injected dose/g tissue. From left to right, the paired bars in FIG. 15B represent blood, liver, kidney, spleen, and muscle tissues, respectively. The bars on the left of the paired bars represent Annexin V. The bars on the right of the paired bars represent PEG-Annexin V.

[3] = tested on: Ara-C treated HL60 and Raji cells (apoptotic cells); test: Cell binding assay of radiolabeled PEGylated annexin V; design: species or system human; details: 1.0 μM Ara-C
Experimental: The 1:30 and 1:60 preps of PEGylated annexin V were tested for their ability to bind to cells that had been treated with Ara-C to induce apoptosis. Human leukemia HL60 or human B-cell lymphoma Raji cells (1×10^6 cells/ml each) were treated with Ara-C at 1.0 μM for 6 hours or 22 hours to induce apoptosis. The cells were then washed twice with PBS and re-suspended in binding buffer (10 mM HEPES/NaOH, pH 7.5 containing 140 mM NaCl and 2.5 mM CaCl2) at a concentration of 1×10^6 cells/ml. Five μl annexin V-FITC solution (50 μg/ml in 50 mM Tris-HCl, pH 7.5, containing 100 mM NaCl) was added into the control cells as well as treated cells. The mixtures were incubated at room temperature for 10 minutes. Apoptotic cells stained with annexin V-FITC (Sigma) were quantified with a Labsystems Fluoroskan FL flow cytometer (Helsinki, Finland) (FIG. 13). […] The cells were washed twice with PBS, centrifuged and counted for cell-associated radioactivity (FIG. 14). FIG. 13 is a bar graph showing apoptotic index after treatment with 1.0 uM Ara-C as quantified by flow cytometry analysis using annexin V-FITC as fluorescent probe. In FIG. 13, the y-axis represents the percent apoptotic cells; the x-axis represents the time after treatment in hours. […] In FIG. 14, the y-axis represents radioactivity in cpm; the x-axis represents time after treatment in hours. […]

MDA-MB-468 tumors [4] = tested on: MDA-MB-468 tumors; design: species or system mice; details: mouse, in vivo
Experimental: The following materials and methods were used in this example. Human breast adenocarcinoma MDA-MB-468 cells were maintained in 1:1(v/v) Dulbecco's modified Eagle's medium (DMEM)/Ham's F-12 mixture supplemented with 10% fetal bovine serum (FBS) (Gibco Laboratories, Grand Island, N.Y.) at 37 C in 5% CO2/95% air. […] Mice in Group I were not treated and were used as a control. In Group II, mice were injected intravenous with PG-paclitaxel (PG-TXL) at an equivalent paclitaxel (Taxol, TXL) dose of 100 mg/kg 1 day before the injection of radiotracer. PG-TXL is a water-soluble polymeric conjugate of paclitaxel and poly(l-glutamic acid). […] The conjugate has the same mechanism of action as paclitaxel. […] Radioactivity of each sample was measured with the Cobra Auto-gamma Counter (Packard, Downers Grove, Ill.). The percentage of the injected dose per gram of tissue (% ID/g tissue) was calculated for each sample. In a separate experiment, tumors were histologically analyzed to quantify apoptotic index induced by drug treatments. […] Apoptosis index was scored in coded slides by microscopic examination at 400× magnification. Five fields of nonnecrotic areas were randomly selected in each histological specimen, and in each field the number of apoptotic nuclei were recorded as numbers per 100 nuclei and were expressed as a percentage. […]

[5] = tested on: HL60 cells and Raji cells; test: Flow cytometry of apoptotic cells stained with annexin V-FITC; format: cell-based, human; details: 1.0 μM, 22 hours, annexin V-FITC staining
Experimental: The 1:30 and 1:60 preps of PEGylated annexin V were tested for their ability to bind to cells that had been treated with Ara-C to induce apoptosis. Human leukemia HL60 or human B-cell lymphoma Raji cells (1×10^6 cells/ml each) were treated with Ara-C at 1.0 μM for 6 hours or 22 hours to induce apoptosis. The cells were then washed twice with PBS and re-suspended in binding buffer (10 mM HEPES/NaOH, pH 7.5 containing 140 mM NaCl and 2.5 mM CaCl2) at a concentration of 1×10^6 cells/ml. Five μl annexin V-FITC solution (50 μg/ml in 50 mM Tris-HCl, pH 7.5, containing 100 mM NaCl) was added into the control cells as well as treated cells. The mixtures were incubated at room temperature for 10 minutes. Apoptotic cells stained with annexin V-FITC (Sigma) were quantified with a Labsystems Fluoroskan FL flow cytometer (Helsinki, Finland) (FIG. 13). […] The cells were washed twice with PBS, centrifuged and counted for cell-associated radioactivity (FIG. 14).
FIG. 13 is a bar graph showing apoptotic index after treatment with 1.0 uM Ara-C as quantified by flow cytometry analysis using annexin V-FITC as fluorescent probe. In FIG. 13, the y-axis represents the percent apoptotic cells; the x-axis represents the time after treatment in hours. […] In FIG. 14, the y-axis represents radioactivity in cpm; the x-axis represents time after treatment in hours. […]

poly (L-glutamic acid)-paclitaxel conjugate [PG-TXL]
apoptotic response of the tumor to treatment (MDA-MB-468 tumors [1]): increased apoptosis

1:15 prep ^111In-DTPA-PEG-annexin V: ^111In-labeled annexin V PEGylated with SCN-PEG-DTPA, 1:15 prep
percentage of injected dose per gram of tissue, blood [2]: 0.36±0.05%
percentage of injected dose per gram of tissue, kidney [2]: 22.35±4.74%
percentage of injected dose per gram of tissue, liver [2]: 8.37±2.76%
percentage of injected dose per gram of tissue, muscle [2]: 0.75±0.04%
percentage of injected dose per gram of tissue, spleen [2]: 6.75±0.44%
clearance [2]: 0.01 mL/h
t1/2, α [2]: 4.90 h
t1/2, β [2]: 26.3 h
terminal half-life (rounded figures) [2]: 26 h

^111In-DTPA-annexin V: ^111In-labeled annexin V with DTPA, without PEG; comparison [reference compound]
clearance [2]: 0.4 mL/h
t1/2, α [2]: 0.07 h
t1/2, β [2]: 17.4 h
terminal half-life (rounded figures) [2]: 17 h

1:30 prep of ^111In-DTPA-PEG-AV: ^111In-labeled annexin V PEGylated with SCN-PEG-DTPA at molar ratio 1:30
increase of cell associated radioactivity after treatment with Ara-C ([3]; HL60 and Raji cells): 4-6 fold
change of tumor uptake 1 day after PG-TXL (MDA-MB-468 tumors [4]): slight but non-significant increase of the radiotracer in the tumor

Nc1ccn([C@@H]2O[C@H](CO)[C@@H](O)[C@@H]2O)c(=O)n1 [Ara-C]
increase of percentage of apoptotic cells [5]: 4-10 fold

1:60 prep of ^111In-DTPA-PEG-AV: ^111In-labeled annexin V PEGylated with SCN-PEG-DTPA at molar ratio 1:60
binding to Ara-C treated cells ([3]; Raji cells): did not show binding to the Ara-C treated cells
